Results: publication PMC11886506

B1: proMdAFS1 WT probe (dsDNA)
DNA 1: CCCACCCCTCCGGAGATTCATTTGATATCCCA
DNA 2: TGGGATATCAAATGAATCTCCGGAGGGGTGGG
B2: proMdAFS1 MUT probe (dsDNA)
DNA 1: CCCACCCCTCCGGTAGCCTCTTTGATATCCCA
DNA 2: TGGGATATCAAAGAGGCTACCGGAGGGGTGGG

What was measured:
Experiment in all cases: EMSA
[1] = molecular target: T1, MdEIL2 DNA-binding domain (His-MBP fusion) (UniProt D5L145 1-311)
T1 sequence: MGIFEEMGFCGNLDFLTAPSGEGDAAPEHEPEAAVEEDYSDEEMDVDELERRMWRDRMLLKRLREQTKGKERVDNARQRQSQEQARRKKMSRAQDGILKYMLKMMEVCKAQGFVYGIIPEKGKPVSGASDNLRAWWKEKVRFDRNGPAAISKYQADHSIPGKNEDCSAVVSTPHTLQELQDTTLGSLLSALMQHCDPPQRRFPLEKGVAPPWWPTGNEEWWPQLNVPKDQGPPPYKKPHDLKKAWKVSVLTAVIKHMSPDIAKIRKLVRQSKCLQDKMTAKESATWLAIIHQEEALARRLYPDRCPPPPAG

[2] = molecular target: T2, MdEIL3 DNA-binding domain (His-MBP fusion) (UniProt D5L146 1-311)
T2 sequence: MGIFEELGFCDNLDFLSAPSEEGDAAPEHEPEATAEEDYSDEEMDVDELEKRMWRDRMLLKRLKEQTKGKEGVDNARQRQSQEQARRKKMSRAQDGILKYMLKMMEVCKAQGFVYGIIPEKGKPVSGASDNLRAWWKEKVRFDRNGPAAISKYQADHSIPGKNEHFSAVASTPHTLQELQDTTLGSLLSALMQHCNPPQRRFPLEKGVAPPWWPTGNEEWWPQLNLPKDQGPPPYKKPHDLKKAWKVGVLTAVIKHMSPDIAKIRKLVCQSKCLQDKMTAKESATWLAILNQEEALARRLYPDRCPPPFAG

[3] = molecular target: T3, MdEIL1 DNA-binding domain (His-MBP fusion) (UniProt D5L144 1-311)
T3 sequence: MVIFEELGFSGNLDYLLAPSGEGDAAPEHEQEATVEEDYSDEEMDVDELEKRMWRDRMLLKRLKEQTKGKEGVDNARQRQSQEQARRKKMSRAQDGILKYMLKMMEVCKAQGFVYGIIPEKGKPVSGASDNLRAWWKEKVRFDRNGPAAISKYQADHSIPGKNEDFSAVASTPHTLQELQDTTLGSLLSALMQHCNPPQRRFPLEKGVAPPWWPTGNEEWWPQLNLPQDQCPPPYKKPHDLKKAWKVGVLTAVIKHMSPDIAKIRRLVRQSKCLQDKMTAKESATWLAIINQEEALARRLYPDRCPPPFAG

[4] = molecular target: His-MBP (UniProt P0AEX9 27-396)

| Binder | binding result [1] | binding result [2] | binding result [3] | binding result [4] |
| --- | --- | --- | --- | --- |
| B1 | binds | binds | binds | no binding |
| B2 | no binding | no binding | no binding | – |
